Results as given in US20130041017A1, “SIRNA-BASED THERAPY OF FIBRODYPLASIA OSSIFICANS PROGRESSIVA (FOP)” (The Trustees of the University of Pennsylvania, published 2013).

Target: T1, ACVR1 Arg206His mutant (R206H; c.617G>A), mutated Activin A type I receptor protein (human)
T1 chain: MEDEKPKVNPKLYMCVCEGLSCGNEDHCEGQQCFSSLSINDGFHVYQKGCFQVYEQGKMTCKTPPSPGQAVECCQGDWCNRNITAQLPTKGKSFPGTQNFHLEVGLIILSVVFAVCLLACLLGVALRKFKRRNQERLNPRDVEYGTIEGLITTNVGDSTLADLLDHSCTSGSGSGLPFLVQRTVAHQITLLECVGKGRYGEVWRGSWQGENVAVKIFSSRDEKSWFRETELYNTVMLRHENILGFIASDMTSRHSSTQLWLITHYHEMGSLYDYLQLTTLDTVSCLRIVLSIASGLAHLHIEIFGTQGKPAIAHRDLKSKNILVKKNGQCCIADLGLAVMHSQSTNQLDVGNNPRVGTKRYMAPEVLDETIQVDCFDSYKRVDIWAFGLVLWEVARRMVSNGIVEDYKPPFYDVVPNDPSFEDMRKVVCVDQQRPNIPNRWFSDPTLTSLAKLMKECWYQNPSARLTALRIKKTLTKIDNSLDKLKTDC
Assay: cell-based or functional assay

B1: Human recombinant BMP4 (ligand)
chain: SPKHHSQRARKKNKNCRRHSLYVDFSDVGWNDWIVAPPGYQAFYCHGDCPFPLADHLNSTNHAIVQTLVNSVNSSIPKACCVPTELSAISMLYLDEYDKVVLKNYQEMVVEGCGCR
  phosphorylated Smad1/5/8 (pSmad1/5/8) by immunoblotting: ~2 fold
